This assay concerns the target soluble gp34 wild type ectodomain, V5-His tagged (sgp34wt-V5-His) (HCMV strain AD169). As to the kind of experiment: blocking of sgp34wt binding to immobilized human IgG, ELISA. Background: An ELISA detects its analyte on a solid surface through an enzyme-linked reagent.

Broadly, the IC50 is the concentration needed to halve the response being measured. A lower IC50 goes with greater potency in that assay. For the substance mouse IgG1 isotype antibody, the IC50 was 9.69 µg/mL.

The values above are taken from patent US20250270295A1.
